# Data from the nanobody polyreactivity screen of Harvey et al. (2022).
# Experiment: yeast display, Sf9 membrane polyspecificity reagent, FACS + sequencing; frameworks hold sequencing errors
# How it was run: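 Nanobodies from a synthetic yeast display library (Saccharomyces cerevisiae BJ5465), induced 36–48 hours with galactose, were stained 1 hour at 4 °C with 10% biotinylated, detergent-solubilized Sf9 membrane reagent, enriched on streptavidin microbeads, then FACS-sorted. Anti-HA (expression) and streptavidin (reagent binding) fluorescence set low and high (top ~1%) gates. Polyreactivity labels come from the gate of origin. Genes were colony-PCR amplified, MiSeq 2 × 250 sequenced and filtered by CDR length.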
row,Sequence,polyreactivity (PSR sort gate)
1,QVQLEDSGGGVVQAGGSLRLSCAASGSIYYPYAMGWNRQAPGKERELVARITSGGSTHYADSVKGRFTISRDNAKNTVYLQMNSLKPEETAVYYCNADYWFVESDYWGKGTQVTVSS,low polyreactivity
2,QVQLEESAGGIVQAGGSLRLSCAGSGSTVSVYAMGWYRQAPGKEWELVARIRWSSGITYYADSVNGRFTISRDNAKNTVYLQLNSVKPEDTAVYYCNAQYRRAYLWFLYDYWGQGTQVTVSS,high polyreactivity
3,QVQLEESAGGLVQAGGSLRLSCAASGSIFFFYAKGRYREAPGKERELVAAITGSGGSTYYADSVKGRFTISRVNAKNTVYLQMNSLKPEDTAVYDCAFRTSRQVYSYAGYESWGQGTHVTVSS,low polyreactivity
4,QVQLEESCGGLVQAGGRLRLSCAASGSIFRFNVMGWYRHAPGKERDLVAAITRGDSTNYADSVKGRFTISRDNAKITVYLQMNILIQDDSAVYYCAAGYYYYLRDHDYWGQGTQVTVSS,low polyreactivity
5,QVQLEESGAGLLQAGGSIRLSCAASGRTFWYYTMGWYRQAPGKEREVVAAISSGGRTNYADSVKGRFTISRDNAKNTVYLQMNSLKPEDTAVYDCAALYAKYYYRYDYWGQGTQVTVSS,high polyreactivity
6,QVQLEESGGCLVQAGGRIRLSCAASGLTFHRYAMGWYRQAPGKERELVAAINYSGGRTYYADSVKGRFTISRDNATNNVYLQMNSLKPEDTAVYYCAAPSASGYYWGQGNQVTVSS,high polyreactivity
7,QVQLEESGGCLVQAGGRIRLSCAASGSIFGYYAMGWYRQAPGKERELVADISYTGVSTYYADSVKGRFTISRDNAKNTVYLQMNSLKPEDTAVYYCAADWVYPDYSWYSYTDFDYWGQGTQVTVSS,low polyreactivity
8,QVQLEESGGCLVQAGGSLRLSCAASGSIFWYNAMGRSRQAPGKERELVAAISYSGDRTYYADSVKGRFTISRDNAKNTGYLLMNSLKPEVTAVYYCAKAGTCFYNSWWEDSWGQGTQVTLSS,low polyreactivity
9,QVQLEESGGGFVQAGGSLRLSCAASGFIFRRYAMGWYRQAPGKERELVAAISWRSGSTYYADSVKGRFTISRDNAKNTVYSPMKCLKPEDTAVYYCAAKDQATYQLYYWGQGTQVTVSS,high polyreactivity
10,QVQLEESGGGFVQAGGSLRLSCAPSGTTFKSNAMGWYRQAPGKERELVAAINSGTSTYYADSVKGRFTISRDNAKNTVYLQMNSLKPEDTAVYYCSADGIWGEYYYSELGDYDYWGLGTQVTVSS,low polyreactivity
11,QVQLEESGGGIVQAGGSLRLSCAASGITFYWYAMGWYRQAPGKERELVASITGNGGGTSYADSVKGRFTISRDNAKNTVYLQMNSLKPEDTAVYYCNTSVGVKDYVSWGQGTQVTLSS,low polyreactivity
12,QVQLEESGGGLDQAGGSLRLICAASGSIFPSYAMGWYRQAPGKERELVATIGRGGTTNYSDSVKGRFTISRDNAKITVYLLMNSLKPEDTAVYYCNADRIWRYKYGYDYWRQGTQVTVSS,high polyreactivity
13,QVQLEESGGGLDQAGGSLRLSCAASGRIFVFYAMGWYRQAPGKERELVAAITASSTRTYFADSVKGRFTISRDNAKNTVYLQMNSLKPEDTAVYYCAADRYYWGQGTQVTVSS,low polyreactivity
14,QVQLEESGGGLFQAGGSLRLSCAASGSTFVSNAMGWYRQAPGKDRELVAAISSSGGRTSYADSVKGRFTISRDNAKNTVYLQMNSLKPEDTAVYYCNRVSPGPDADLEFDYWGQGTQVTVSS,low polyreactivity
15,QVQLEESGGGLGQAGGSLRLSCAASGRIFRDYAMGWSRQAPGKERELVAAITSGGTTYADSVKGRVTISRDNAKNTVYLQLNSLKPEDTAVYYCNVAWIWGKFDYWGQGTQVTVSS,high polyreactivity
16,QVQLEESGGGLGQAGGSLRLTCAASGSIFRQYAMGWYRQAPGKERDLVATISRSGGSTYYADSVKGRFTISRDNAKNTVYLQLNSLKPEDTAVYYCAASRYNKSYREWWVGSWGQGTQVTVSS,high polyreactivity
17,QVQLEESGGGLLQAGGSLRLSCAASGSTFLRNAKGWYRQAPGKERELVATITISGGSTHYADSVKGRFTISRDNAKNTVYLPMNSLKPEDTAVYYCGTPRYPSYDYWGQGTQVTVSS,low polyreactivity
18,QVQLEESGGGLVKARGSLRITCAASGSTFDYYTMGWYRQAPGKERELFAAINSSGGRTYYADSVKGRFTISRDTAKNTVYLQMNSLIPEDTAVYDCAAVTLCLGRYPYTYTSRYEYWGLGTQVTVSS,high polyreactivity
19,QVQLEESGGGLVQAGASLRLSCAASGRTFPRYAMGWSRQAPGKERELVAAITSSGGSTNYADSVKGRFTISRENATNSVYLQMYSLKPEDTAVYYCNARFPTQYILWSSSPYGYWGQGTQVTVSS,low polyreactivity
20,QVQLEESGGGLVQAGCSLRLSCAASGRIFHFYAIGRYRQAPGKERELVAVINGGGSTYYADSVKGRFTISRDNAKNTVYLQMNSLKPEVTAVYYCAADVYLSRYEKYGYWGQGTQVTVSS,high polyreactivity
21,QVQLEESGGGLVQAGGIRRLSCAASGRIFPYYAMGWYRLAPGKERELVAAISLSGGSTYYADSVKGRFTISRDTAKMSGYLQMTSLKPEDTAVYYGNAVASTSGYYWYPGLGYDYCGQGTQVTVSS,low polyreactivity

row,Sequence,polyreactivity (PSR sort gate)
1,QVQLEESGGGLVQAGGRLRLSCAASGGNFNYYPMGWYREAPGKERELVAAITRGGSTYYADSVKGRFTISRDNAKNTVYLQMNSLKPEDTAVYYCAAGWRRYDKSPLEGSWGQGTQVTLSS,high polyreactivity
2,QVQLEESGGGLVQAGGRLRLSCAASGIIFGYYAIGWYRQAPGKERELVAAISSGGTTSYADSVKGRFTISRDNAKNTVYLQMNSLKPEDTSVYYCSARDWYDGFYYWGQGTQVTVSS,low polyreactivity
3,QVQLEESGGGLVQAGGRLRLSCAASGNTFQVYAMGWSRQASGTERELVATITSGGSTNYADSVKGRFTISRDNAKNTVYLQMNSQIPDDTAVYYCARRAVYSKRRYDYWGQGTQVTVSS,low polyreactivity
4,QVQLEESGGGLVQAGGRLRLSCAASGRTFGANAMGWYRQAPGKERELVATIRRGGSTYYADSVKGRFTISRDNAKNTFYLQMHSLKPEDTAVYYCATQYHSYAKEYDYWGQGTQVTVSS,low polyreactivity
5,QVQLEESGGGLVQAGGRLRLSCAASGSTCGTNVMGGARQAPGKERELVAAFSNGGSTNYADSVKGRFTISRDNAKITDYLQMNSLKPEDTAVYYCEFDYWGQGTQVTVSS,low polyreactivity
6,QVQLEESGGGLVQAGGSHRLSCAASGIIFRWYTMGWYRQAPGKERELVAAISTSTGSTYYADSVKGRFTISRDNAKNTVYLQMNSLKPEDTGVYYCAAEYAYWNYESYYWGQGTQVNVSS,high polyreactivity
7,QVQLEESGGGLVQAGGSHRLSCAASGSIFGPNAMGWSRQAPGKERELVAAISWTGGRTYYADSVKGRFTISRDNAYNTVYLQMNSLKPEDTAVYDCAVKGHPCGQGTQVTVSS,low polyreactivity
8,QVQLEESGGGLVQAGGSHRLSCPASGRTFYKNAMGWSRQAPRKERELVAAITSGGSTNYADSVKGRFSISRDNAKNSVYLQMNSLKSEDTAVYYCAAQQFPYYRSRFSYINKYDYWGQGTQVTVSS,high polyreactivity
9,QVQLEESGGGLVQAGGSLLLICADSGSILGGNAMGWYRHAPGKERQMVDAITFSGGGTYYADSVKGRFTLSRDNAKNTVYLQMNSLKPEDTAVYYCAADKDGYTYEFDYWGQGTQVTVSS,low polyreactivity
10,QVQLEESGGGLVQAGGSLRISCAASGFTFSHNAMGWYRQAPGKERELVAAISKGGSSTYYADSVKGRFTISRDNAKNTVYLQMNSLKPEDTAVYYCARPSPHKGYDYWGQGTQVTVSS,high polyreactivity
11,QVQLEESGGGLVQAGGSLRISCAASGITFDDYDMGWYRQAPGKERELVAAITWSGGSTYYADSVKGRFTSSRDNAKNTVYLQMNSLKPEVTAVSYCNAGSTWAYSYPVGKSDLDYWGQGTQVTVSS,low polyreactivity
12,QVQLEESGGGLVQAGGSLRISCAASGSIFPSYAMGWYRQAPGKERELVAAISSRGGSTYYADSVKGRFTISRDNAKNSVYLQMNSLKPEDTAVYYCNAVAGGVYVDKGYDYWGQGTQVTVSS,high polyreactivity
13,QVQLEESGGGLVQAGGSLRISCAASGSTYYNYAMGWYRQAPGKERELVAAISRSGITYYADSVKGRFTISRDNAKNTVYLQMNSLKPEDTAVYYCAAGRRFDQSMYYWGQGTQVTVSS,high polyreactivity
14,QVQLEESGGGLVQAGGSLRLICAASGGIFRYYAMGWSRQAPGKERELVAAITQSGARTYYADSVKGRFTISRDNAKNTVYLQMNSMKPEDTAVYYCAADRTGSRYNSWGQGTQVTVSS,high polyreactivity
15,QVQLEESGGGLVQAGGSLRLSCAASGFIFPHYAMGWYLQAPGKERELVAAISKSGDSTYYADSVKGRFTISRDNAKNTVYLQMNSLKPEDTAVYYCARRGRSLRWKYDYWGQGTQVTVSS,low polyreactivity
16,QVQLEESGGGLVQAGGSLRLSCAASGFIFSSNAMGWYRQAPGKESQLVARITRSDGSTYYADSVKGRFTISRDSAKNTVYLQMNSLKPEDTAFDYCAKGRDATHYEYYLYSMDYWGQGTQVTVSS,low polyreactivity
17,QVQLEESGGGLVQAGGSLRLSCAASGFISIPYAMGWYRQAPGKERELVASITRSGGNTYYADSVKGRFTISRDNAKNTVYLQMNSLKPEDTAVYYCNVVVYRWSPVSKLDYWGQGTQVTVSS,high polyreactivity
18,QVQLEESGGGLVQAGGSLRLSCAASGFITSHYAMGWYIQAPGKERELVATISSGGSTYADSVKGRFTISRDNAKNTVYLQMNSLKPEDTAVYYCNVRLQGTYRAGVRGDYWGQVTQVTVSS,high polyreactivity
19,QVQLEESGGGLVQAGGSLRLSCAASGFNFDVYAMGWYRQAPGKERELVAAISRSGGSTYYADSVKGRFTISRDNAKNTFYLQMNSLKPEDTAVYYCATDLLNNVDYDYWGQGTQVTVSS,low polyreactivity
20,QVQLEESGGGLVQAGGSLRLSCAASGFNFFRNTMGGYRQAPGKERELVAGIRYSGGSTYYADSVKGRFTISRDNAKNTVYLQMNSLKPEDTAVYYCAARSHRRLMYYWGQGTQVTVSS,high polyreactivity
